Reference: patent CN113735974A (HANGZHOU BANGSHUN PHARMACEUTICAL CO LTD, dated 2021)

Legend:
[1] = target: T1, 人Claudin18.1 (human Claudin18.1) (human, UniProt P56856 1-261); assay: flow cytometry (FACS) on Claudin18.1-positive HEK293 cells, FITC goat anti-human IgG
T1 construct: whole, on cells; also called CLD18.1; 密蛋白18.1

[2] = target: T2, 人Claudin18.2蛋白 (human Claudin18.2) (human, UniProt P56856-2 1-261); assay: flow cytometry (FACS) on Claudin18.2-positive HEK293 cells, 0.1-10 μg/mL, FITC goat anti-human IgG
T2 construct: whole, on cells; also called CLD18.2; 密蛋白18.2

B1: HDR002C04 (antibody, human IgG1, lambda, V domains shown)
VH: QVQLVQSGAEVKKPGASVKVSCKASGYTFTSYYMHWVRQAPGQGLEWMGIINPSGGSTSYAQKFQGRVTMTRDTSTSTVYMELSSLRSEDTAVYYCAKGSVDTAMVPGVDYWGQGTLVTVSS
VL: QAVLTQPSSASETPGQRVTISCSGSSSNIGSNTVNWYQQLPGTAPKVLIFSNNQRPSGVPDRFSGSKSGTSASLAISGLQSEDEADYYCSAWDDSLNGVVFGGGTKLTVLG
notes: also called 抗体HDR002C04; 抗Claudin18.2抗体
[1]
  binding result: no binding (tested: 0.1-10 μg/mL tested)
[2]
  binding result: binds

B2: HDR002C06 (antibody, human IgG1, kappa, V domains shown)
VH: QVQLQESGPGLVKPSQTLSLTCTVSGGSISSGGYYWSWIRQHPGKGLEWIGYIYYSGSTYYNPSLKSRVTISVDTSKNQFSLKLSSVTPDDTAKYYCARIVASVGGVDVWGQGTTVTVSS
VL: DIQLTQSPSSVSASVGDRVTITCRASQGISSWLAWYQQKPGKAPKLLIYAASSLQSGVPSRFSGSGSGTDFTLTISSLQPEDFATYYCQQANSFPLTFGGGTKVEIKR
notes: also called 抗体HDR002C06; 抗Claudin18.2抗体
[1]
  binding result: no binding (tested: 0.1-10 μg/mL tested)
[2]
  binding result: binds
